Measured values: patent publication US10500249B2, “Compositions and methods for preventing or treating diseases, conditions, or processes characterized by aberrant fibroblast proliferation and extracellular matrix deposition” (MOERAE MATRIX, INC., priority 2014, dated 2019)

Assays:
Test in all cases: Kinase Profiling Assay
Format in all cases: biochemical
Conditions in all cases: 100 μM
ALK4 (h) = biological target: T1, ALK4 (h) (Homo sapiens, UniProt P36896)
T1 sequence (P36896 24-505): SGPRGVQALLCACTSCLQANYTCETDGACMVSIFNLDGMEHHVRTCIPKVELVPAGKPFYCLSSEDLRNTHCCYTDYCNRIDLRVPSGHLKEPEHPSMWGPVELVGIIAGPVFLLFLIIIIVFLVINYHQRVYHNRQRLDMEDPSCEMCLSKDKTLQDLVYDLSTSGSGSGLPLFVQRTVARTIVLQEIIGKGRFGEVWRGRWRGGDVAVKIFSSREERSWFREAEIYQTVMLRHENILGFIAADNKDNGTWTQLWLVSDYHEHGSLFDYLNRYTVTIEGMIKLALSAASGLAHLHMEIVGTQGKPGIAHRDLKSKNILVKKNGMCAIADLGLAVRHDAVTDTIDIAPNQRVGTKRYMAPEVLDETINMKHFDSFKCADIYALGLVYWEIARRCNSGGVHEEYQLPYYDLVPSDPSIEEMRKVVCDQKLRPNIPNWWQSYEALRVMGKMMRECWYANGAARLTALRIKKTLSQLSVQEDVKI
In short: (§1)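 Each kinase activity was measured in duplicate. Phosphorylation of a positively charged substrate with radiolabeled phosphate from ATP was captured on a negatively charged filter, counted by scintillation and expressed relative to a 100% activity control. MK2 inhibitory peptides were screened for specificity across 266 human kinases.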

Abl(Y253F) (h) = Abl(Y253F) (h) (Homo sapiens, UniProt P00519, Y253F)
In short: as §1

CHK2 (h) = biological target: T2, CHK2 (h) (Homo sapiens, UniProt O96017)
T2 construct: purchased Millipore
T2 sequence (O96017 whole entry): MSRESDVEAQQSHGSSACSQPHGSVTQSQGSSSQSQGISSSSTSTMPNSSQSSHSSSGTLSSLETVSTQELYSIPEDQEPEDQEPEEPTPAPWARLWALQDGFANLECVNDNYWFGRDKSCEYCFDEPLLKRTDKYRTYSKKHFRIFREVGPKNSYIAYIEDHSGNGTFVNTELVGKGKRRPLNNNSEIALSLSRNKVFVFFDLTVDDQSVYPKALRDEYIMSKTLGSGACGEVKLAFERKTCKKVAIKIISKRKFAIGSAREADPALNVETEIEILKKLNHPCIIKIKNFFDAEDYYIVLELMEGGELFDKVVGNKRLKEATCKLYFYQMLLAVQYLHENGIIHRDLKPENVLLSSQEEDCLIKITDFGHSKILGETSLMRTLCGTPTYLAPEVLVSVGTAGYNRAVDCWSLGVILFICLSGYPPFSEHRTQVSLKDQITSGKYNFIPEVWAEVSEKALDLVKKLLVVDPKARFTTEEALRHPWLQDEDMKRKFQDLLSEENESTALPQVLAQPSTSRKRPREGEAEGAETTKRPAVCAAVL
In short: as §1

MRCKβ (h) = biological target: T3, MRCKβ (h) (Homo sapiens, UniProt Q9Y5S2)
T3 construct: purchased Millipore
In short: as §1

MST2 (h) = biological target: T4, MST2 (h) (Homo sapiens, UniProt Q13188)
T4 construct: purchased Millipore
T4 sequence (Q13188 1-491): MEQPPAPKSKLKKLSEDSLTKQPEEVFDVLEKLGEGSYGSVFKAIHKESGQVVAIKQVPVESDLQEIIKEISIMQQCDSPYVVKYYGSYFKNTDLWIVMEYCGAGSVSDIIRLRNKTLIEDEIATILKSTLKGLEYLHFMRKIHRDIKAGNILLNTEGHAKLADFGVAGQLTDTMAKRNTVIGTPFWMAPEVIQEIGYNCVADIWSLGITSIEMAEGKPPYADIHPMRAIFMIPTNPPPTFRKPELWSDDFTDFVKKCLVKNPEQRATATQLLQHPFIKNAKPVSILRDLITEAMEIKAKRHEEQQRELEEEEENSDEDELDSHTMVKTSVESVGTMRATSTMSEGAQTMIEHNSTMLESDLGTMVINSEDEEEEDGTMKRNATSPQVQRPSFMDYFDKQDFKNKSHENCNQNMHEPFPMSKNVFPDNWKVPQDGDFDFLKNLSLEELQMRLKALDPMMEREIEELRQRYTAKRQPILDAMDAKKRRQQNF
In short: as §1

PKG1α (h) = biological target: T5, PKG1α (h) (Homo sapiens, UniProt Q13976)
T5 sequence (Q13976 1-671): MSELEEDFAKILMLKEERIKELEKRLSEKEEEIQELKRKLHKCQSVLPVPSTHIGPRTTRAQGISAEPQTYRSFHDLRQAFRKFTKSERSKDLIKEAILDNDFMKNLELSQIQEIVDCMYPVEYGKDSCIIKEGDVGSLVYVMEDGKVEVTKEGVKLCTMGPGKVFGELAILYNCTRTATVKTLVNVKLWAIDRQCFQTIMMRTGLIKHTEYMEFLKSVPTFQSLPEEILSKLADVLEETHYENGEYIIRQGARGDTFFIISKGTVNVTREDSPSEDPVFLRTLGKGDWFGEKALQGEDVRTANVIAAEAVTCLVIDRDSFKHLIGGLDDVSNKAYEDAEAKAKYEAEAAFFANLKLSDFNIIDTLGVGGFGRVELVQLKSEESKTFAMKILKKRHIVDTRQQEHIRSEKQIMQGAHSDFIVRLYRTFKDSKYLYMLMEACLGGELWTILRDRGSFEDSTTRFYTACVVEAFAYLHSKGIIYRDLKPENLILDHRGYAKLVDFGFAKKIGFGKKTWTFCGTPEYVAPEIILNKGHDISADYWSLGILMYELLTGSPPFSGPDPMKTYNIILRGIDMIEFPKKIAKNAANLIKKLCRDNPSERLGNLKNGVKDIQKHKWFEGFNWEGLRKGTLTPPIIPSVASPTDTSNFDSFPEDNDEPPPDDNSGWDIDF
In short: as §1

ROCK-I (h) = ROCK-I (h) (Homo sapiens, UniProt Q13464)
Chain of ROCK-I (h) (Q13464 whole entry): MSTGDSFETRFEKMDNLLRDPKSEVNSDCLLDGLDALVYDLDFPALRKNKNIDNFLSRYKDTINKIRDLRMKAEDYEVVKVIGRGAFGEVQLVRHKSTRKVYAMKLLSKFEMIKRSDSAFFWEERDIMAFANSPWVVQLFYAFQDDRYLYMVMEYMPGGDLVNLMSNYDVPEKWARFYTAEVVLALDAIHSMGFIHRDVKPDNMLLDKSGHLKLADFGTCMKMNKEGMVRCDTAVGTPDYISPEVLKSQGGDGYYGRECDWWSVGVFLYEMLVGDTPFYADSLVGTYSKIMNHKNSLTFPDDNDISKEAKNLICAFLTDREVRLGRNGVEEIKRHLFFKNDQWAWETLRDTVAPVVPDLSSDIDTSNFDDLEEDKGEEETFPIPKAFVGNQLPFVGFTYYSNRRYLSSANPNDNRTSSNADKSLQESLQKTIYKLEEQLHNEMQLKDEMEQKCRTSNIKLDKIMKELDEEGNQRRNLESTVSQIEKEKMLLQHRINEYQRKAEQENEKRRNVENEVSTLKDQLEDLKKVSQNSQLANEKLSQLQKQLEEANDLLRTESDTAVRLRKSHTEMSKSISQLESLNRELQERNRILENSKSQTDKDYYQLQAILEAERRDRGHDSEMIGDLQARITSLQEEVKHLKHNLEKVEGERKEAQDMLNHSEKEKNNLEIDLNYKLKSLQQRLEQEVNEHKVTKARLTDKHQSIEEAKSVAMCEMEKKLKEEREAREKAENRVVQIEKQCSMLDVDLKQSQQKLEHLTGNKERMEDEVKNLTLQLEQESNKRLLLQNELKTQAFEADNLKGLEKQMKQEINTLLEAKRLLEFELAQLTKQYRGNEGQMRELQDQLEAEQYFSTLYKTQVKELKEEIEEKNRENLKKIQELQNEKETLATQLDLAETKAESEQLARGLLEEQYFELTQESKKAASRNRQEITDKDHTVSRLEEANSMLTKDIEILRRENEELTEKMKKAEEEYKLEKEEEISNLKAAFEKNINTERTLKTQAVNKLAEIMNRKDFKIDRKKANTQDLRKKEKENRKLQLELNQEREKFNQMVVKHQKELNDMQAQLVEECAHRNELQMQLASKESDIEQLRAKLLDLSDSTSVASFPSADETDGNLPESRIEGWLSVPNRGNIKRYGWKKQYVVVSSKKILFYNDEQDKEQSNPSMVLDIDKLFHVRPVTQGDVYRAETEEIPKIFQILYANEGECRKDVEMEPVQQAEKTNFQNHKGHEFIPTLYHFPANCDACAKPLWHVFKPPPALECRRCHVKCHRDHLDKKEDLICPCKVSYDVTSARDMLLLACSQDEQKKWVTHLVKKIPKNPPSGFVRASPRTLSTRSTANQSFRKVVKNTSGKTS
In short: as §1

Rsk4 (h) = Rsk4 (h) (Homo sapiens, UniProt Q9UK32)
Chain of Rsk4 (h) (Q9UK32 whole entry): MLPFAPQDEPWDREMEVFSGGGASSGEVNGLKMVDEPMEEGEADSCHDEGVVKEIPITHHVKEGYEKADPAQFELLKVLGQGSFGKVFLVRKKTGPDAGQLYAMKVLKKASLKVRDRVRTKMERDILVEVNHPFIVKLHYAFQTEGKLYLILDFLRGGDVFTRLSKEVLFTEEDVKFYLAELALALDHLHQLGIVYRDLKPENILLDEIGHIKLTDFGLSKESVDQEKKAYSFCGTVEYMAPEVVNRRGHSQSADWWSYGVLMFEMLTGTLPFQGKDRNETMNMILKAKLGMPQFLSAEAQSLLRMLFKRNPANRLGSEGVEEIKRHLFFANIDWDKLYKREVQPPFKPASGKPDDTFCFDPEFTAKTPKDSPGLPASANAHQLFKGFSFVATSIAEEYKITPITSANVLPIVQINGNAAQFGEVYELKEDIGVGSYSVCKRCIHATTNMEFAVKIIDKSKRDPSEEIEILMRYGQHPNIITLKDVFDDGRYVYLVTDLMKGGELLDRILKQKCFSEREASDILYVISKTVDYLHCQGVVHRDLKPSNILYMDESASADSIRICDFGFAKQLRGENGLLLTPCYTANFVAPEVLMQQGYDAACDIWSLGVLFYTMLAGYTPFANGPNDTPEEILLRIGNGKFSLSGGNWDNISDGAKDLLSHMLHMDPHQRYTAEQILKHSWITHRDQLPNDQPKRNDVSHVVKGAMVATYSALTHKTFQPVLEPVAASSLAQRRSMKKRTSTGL
In short: as §1

SGK2 (h) = biological target: T6, SGK2 (h) (Homo sapiens, UniProt Q9HBY8)
T6 sequence (Q9HBY8 1-367): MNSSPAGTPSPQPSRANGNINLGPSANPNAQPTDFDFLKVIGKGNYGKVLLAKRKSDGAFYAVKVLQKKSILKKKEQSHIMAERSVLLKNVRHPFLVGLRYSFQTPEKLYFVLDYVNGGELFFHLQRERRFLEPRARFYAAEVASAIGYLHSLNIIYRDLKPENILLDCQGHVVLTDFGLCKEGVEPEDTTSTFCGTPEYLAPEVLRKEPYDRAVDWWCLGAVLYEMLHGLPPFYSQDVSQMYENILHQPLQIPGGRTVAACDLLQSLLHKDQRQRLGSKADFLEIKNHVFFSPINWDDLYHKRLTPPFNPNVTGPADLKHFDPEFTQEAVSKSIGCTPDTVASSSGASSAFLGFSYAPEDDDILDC
In short: as §1

Tie2(Y897S) (h) = Tie2(Y897S) (h) (Homo sapiens, UniProt Q02763, Y897S)
Chain of Tie2(Y897S) (h) (Q02763 23-1124 Y897S): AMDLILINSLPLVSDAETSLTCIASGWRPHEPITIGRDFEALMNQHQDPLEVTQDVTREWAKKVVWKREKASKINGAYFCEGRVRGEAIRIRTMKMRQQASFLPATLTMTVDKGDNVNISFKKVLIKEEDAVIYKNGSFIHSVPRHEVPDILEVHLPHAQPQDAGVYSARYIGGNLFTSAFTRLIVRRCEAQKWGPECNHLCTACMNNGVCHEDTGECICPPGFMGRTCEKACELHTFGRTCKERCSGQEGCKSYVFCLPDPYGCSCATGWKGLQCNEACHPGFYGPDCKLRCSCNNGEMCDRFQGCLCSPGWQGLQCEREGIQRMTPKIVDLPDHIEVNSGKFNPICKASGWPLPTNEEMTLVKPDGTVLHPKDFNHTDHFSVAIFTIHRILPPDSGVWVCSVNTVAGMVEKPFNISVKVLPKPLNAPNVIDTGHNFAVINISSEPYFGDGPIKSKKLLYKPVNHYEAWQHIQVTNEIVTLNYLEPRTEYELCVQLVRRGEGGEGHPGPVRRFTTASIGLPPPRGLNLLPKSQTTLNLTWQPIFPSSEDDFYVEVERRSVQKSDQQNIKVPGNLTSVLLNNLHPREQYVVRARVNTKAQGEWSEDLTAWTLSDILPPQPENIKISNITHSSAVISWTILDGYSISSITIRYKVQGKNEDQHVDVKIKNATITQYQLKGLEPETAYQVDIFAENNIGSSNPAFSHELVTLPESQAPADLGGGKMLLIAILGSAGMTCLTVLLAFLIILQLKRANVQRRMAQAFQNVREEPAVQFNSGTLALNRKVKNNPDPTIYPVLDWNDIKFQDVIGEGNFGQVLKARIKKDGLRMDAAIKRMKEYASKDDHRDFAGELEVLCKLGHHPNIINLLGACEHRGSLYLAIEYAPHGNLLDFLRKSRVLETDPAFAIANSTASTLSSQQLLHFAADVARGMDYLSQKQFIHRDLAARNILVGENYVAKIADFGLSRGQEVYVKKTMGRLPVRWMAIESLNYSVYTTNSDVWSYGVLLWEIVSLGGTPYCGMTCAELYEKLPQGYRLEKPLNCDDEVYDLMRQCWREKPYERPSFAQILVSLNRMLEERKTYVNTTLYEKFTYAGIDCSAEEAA
In short: as §1

Yes (h) = Yes (h) (Homo sapiens, UniProt P07947)
Chain of Yes (h) (P07947 whole entry): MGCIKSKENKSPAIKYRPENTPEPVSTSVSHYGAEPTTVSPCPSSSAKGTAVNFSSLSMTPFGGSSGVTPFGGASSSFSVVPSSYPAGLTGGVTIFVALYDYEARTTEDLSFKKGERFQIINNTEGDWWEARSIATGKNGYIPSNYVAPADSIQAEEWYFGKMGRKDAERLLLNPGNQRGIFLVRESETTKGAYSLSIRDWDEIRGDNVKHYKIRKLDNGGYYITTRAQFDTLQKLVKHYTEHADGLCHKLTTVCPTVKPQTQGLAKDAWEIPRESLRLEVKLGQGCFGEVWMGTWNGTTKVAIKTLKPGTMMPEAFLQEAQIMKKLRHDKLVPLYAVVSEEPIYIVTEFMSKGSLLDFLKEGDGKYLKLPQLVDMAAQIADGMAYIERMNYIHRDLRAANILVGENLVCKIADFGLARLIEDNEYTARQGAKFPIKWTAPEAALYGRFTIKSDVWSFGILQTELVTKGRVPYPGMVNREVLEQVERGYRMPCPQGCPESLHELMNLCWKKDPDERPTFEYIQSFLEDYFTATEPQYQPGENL
In short: as §1

mTOR (h) = biological target: T7, mTOR (h) (Homo sapiens, UniProt P42345)
T7 construct: purchased Millipore
In short: as §1

## FAKLAARLYRKALARQLGVAA [MMI-0300]
ALK4 (h)
  % activity: 140%
Abl(Y253F) (h)
  % activity: 86%
CHK2 (h)
  % activity: 66%
MRCKβ (h)
  % activity: 83%
MST2 (h)
  % activity: 19%
PKG1α (h)
  % activity: 64%
ROCK-I (h)
  % activity: 79%
Rsk4 (h)
  % activity: 90%
SGK2 (h)
  % activity: 56%
Tie2(Y897S) (h)
  % activity: 83%
Yes (h)
  % activity: 67%
mTOR (h)
  % activity: 91%

## HRRIKAWLKKIKALARQLGVAA (Mammalian) [MMI-0500]
ALK4 (h)
  % activity: 81%
Abl(Y253F) (h)
  % activity: 29%
CHK2 (h)
  % activity: 13%
MRCKβ (h)
  % activity: −10%
MST2 (h)
  % activity: 2%
PKG1α (h)
  % activity: 25%
ROCK-I (h)
  % activity: 17%
Rsk4 (h)
  % activity: 29%
SGK2 (h)
  % activity: −1%
Tie2(Y897S) (h)
  % activity: 80%
mTOR (h)
  % activity: 135%

## KAFAKLAARLYRKALARQLGVAA [MMI-0400]
ALK4 (h)
  % activity: 130%
Abl(Y253F) (h)
  % activity: 78%
CHK2 (h)
  % activity: 54%
MRCKβ (h)
  % activity: 71%
MST2 (h)
  % activity: 11%
PKG1α (h)
  % activity: 58%
ROCK-I (h)
  % activity: 73%
Rsk4 (h)
  % activity: 91%
SGK2 (h)
  % activity: 98%
Tie2(Y897S) (h)
  % activity: 87%
Yes (h)
  % activity: 14%
mTOR (h)
  % activity: 93%

## YARAAARQARAKALNRQLGVA (Mammalian) [MMI-0200]
ALK4 (h)
  % activity: 152%
PKG1α (h)
  % activity: 70%
Rsk4 (h)
  % activity: 125%
Tie2(Y897S) (h)
  % activity: 85%
Yes (h)
  % activity: 93%
mTOR (h)
  % activity: 110%
